Results from US12441790B2, “Binding proteins to the human thrombin receptor, PAR4” (MONASH UNIVERSITY, priority 2017, dated 2025).

Key:
PAR1 = target: T1, PAR1 (Homo sapiens, UniProt P25116); details: in combination with single or dual antiplatelet therapy; cited from earlier work
T1 construct: host or cells: patients in clinical trials
T1 sequence (P25116 22-425): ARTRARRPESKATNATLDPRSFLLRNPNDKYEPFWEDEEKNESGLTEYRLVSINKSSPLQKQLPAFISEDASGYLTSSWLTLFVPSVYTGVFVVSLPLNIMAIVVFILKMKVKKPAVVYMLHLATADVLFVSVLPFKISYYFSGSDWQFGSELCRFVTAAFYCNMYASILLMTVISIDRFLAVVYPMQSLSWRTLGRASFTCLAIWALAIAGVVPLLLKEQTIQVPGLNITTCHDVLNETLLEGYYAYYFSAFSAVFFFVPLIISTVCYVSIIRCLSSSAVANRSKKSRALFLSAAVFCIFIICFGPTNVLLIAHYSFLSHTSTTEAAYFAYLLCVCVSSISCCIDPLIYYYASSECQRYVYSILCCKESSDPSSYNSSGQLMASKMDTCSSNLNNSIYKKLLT

PAR2 = target: T2, PAR2 (Homo sapiens, UniProt P55085); experiment: ELISA binding ratio to PAR2; details: second screening
T2 construct: host or cells: synthetic peptide
T2 sequence (P55085 with tags, fused parts or gaps limits assumed): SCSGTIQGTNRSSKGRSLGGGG
Procedure: (§1) 96-well ELISA plates were coated with 50 μl of antigen diluted to a concentration of 4 μg/ml in coating buffer (0.1M Sodium Hydrogen Carbonate (NaHCO3) (Merck, #1.06329.0500)). Plates were incubated overnight at 4° C.
(§2) Wells were then washed with an automated plate washer (300 μl 1×PBS, 3 times). The wells were blocked with 200 μl of blocking buffer (3% BSA/1×PBS (BSA: (Sigma, #1001647742)) for 1 hour at room temperature followed by washing as above.
(§3) 50 μl of undiluted hybridoma cell culture supernatant was added into appropriate wells and incubated at room temperature for 1 hour followed by washing as above. […] Wells were washed as above. A set of substrate tablets (1×silver, 1×gold) into 20 ml of ddH20 by shaking vigorously on the thermomixer for 6 mins at room temperature. 50 μl of substrate ([…]™ p-Nitrophenyl phosphate Tablets (Sigma-Aldrich, N2770-50SET)) was added into each well and incubated for 20-25 mins at room temperature. 50 μl of STOP solution (2M Sodium Hydroxide, Solid (NaOH) (Merck, Cas #1310-73-2)) was added into each well to stop the reaction. Absorbance was read at 405 nm immediately after adding STOP solution with the ELISA reader, using the ‘RdrOle4’ software.

human platelets = experiment: Functional screen of hybridoma supernatants by platelet aggregation assay; assay type: cell-based; details: aggregation as % of control
Procedure: Platelet aggregation was measured by light transmission aggregometry in a 96-well plate format. Human isolated platelets (2×10^8/ml) were pre-treated for 10 mins at 37° C. with dimethylsulfoxide (DMSO) (1% v/v), the PAR1 antagonist vorapaxar (90 nM), the anti-PAR4 antibody 5RC3 (20-100 μg/ml), or a combination of vorapaxar and 5RC3. Platelets were treated with one of thrombin (0.1 U/ml) and aggregation was analysed at 37° C. in a FLUOstar OPTIMA plate reader (BMG Labtech) using a 595 nm excitation filter, for a period of 50 min (10 read cycles with 5 min double orbital shake period between each read). Optical density was normalised against the blank (maximum) and unstimulated platelets (minimum) and expressed as % maximum.
Thrombin-induced platelet aggregation in the presence of a PAR1 antagonist (i.e. PAR4-dependent aggregation) is shown for 30 monoclonal antibody supernatants binding to human platelets. Antibody supernatant was mixed with human platelets (2×10^8 cells) at a 1:1 ratio.

native PAR4 peptide = target: T3, native PAR4 peptide (Homo sapiens, UniProt Q96RI0); experiment: ELISA screening of hybridoma supernatants, native vs KLH-linked PAR4 peptide; assay type: binding; details: first screening; clone; hybridoma supernatant
T3 construct: host or cells: synthetic peptide
Procedure: as §1, §2, §3

[1] = target: T4, human PAR4 containing an N-terminal FLAG tag (Homo sapiens, UniProt Q96RI0); experiment: PAR4 thrombin cleavage assay, FLAG-tagged PAR4 on HEK293 cells, flow cytometry; assay type: cell-based
T4 construct: expressed in transfected cells; host or cells: HEK293 / HEK293T
T4 sequence (Q96RI0 18-385): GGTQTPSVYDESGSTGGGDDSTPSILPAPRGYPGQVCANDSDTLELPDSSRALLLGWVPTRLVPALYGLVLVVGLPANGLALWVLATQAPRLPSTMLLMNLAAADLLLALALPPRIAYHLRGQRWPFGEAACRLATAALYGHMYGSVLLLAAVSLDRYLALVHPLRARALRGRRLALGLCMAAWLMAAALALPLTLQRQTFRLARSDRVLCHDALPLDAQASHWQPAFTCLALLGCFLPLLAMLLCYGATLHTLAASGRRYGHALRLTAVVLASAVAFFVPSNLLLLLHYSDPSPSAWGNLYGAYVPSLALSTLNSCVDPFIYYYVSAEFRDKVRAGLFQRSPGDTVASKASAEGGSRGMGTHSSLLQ
Procedure: 1×10^6 HEK293T cells (in Dulbecco's modified eagle's medium+10% foetal calf serum) were seeded onto 12-well plates 24 hours before transfection. When confluent, they were transiently transfected with 1 μg of DNA from one of the PAR4 variants (expression vectors pBJ-FLAG-PAR4-120A-296F or pBJ-FLAG-PAR4-120T-296F; Edelstein et al (2014) Blood 124(23):3450-8) plus 4 μL of Lipofectamine 2000, as per manufacturer's instructions. Forty-eight hours after transfection, cells were harvested and washed twice with PBS, then resuspended to a count of 1×10^6/mL. Cells (50 μL assays/0.5×10^5 cells per condition) were then pre-treated with either 1, 10 or 100 μg/mL of 5RC3 or sub-clone 5A.RC3.F10b.H4b or 100 μg/mL matched Isotype control (mouse IgG1) for 15 minutes at 37° C. Cells were then stimulated with 2 U/mL of thrombin for 10 minutes. The reaction was stopped by the addition of 4 U/mL hirudin. Cells were then washed once and resuspended with PBS containing a 1:200 dilution of FITC anti-FLAG antibody (Sigma, clone M2) and incubated for 1 hour at room temperature in the dark. Cells were then fixed with 1% paraformaldehyde (final concentration) and read on a FACSCalibur flow cytometer to determine % of FL1/FITC-Positive events. Data were normalised against the resting sample (100%, no thrombin treatment).
Monoclonal antibody hybridoma supernatants (MoB5ARC3, MoB5BRB4, MoB5BRC6, MoB5BRH3 and MoB5CRC4) were screened for their ability to […] intact PAR4 present on the surface of HEK293 cells transfected with human PAR4 containing an N-terminal FLAG tag.
[…] Cleavage of PAR4 by thrombin was measured by loss of FLAG tag from the PAR4 expression HEK293T cells using flow cytometry.

Molecule: CCOC(=O)N[C@@H]1CC[C@@H]2[C@@H](C1)C[C@H]1C(=O)O[C@H](C)[C@H]1[C@H]2/C=C/c1ccc(-c2cccc(F)c2)cn1 [vorapaxar]
- intracranial bleeding (PAR1): significantly increased rates of intracranial bleeding

B1: MoB5G G1: hybridoma supernatant clone, second screening; likely parent of 5G.RG1 (antibody, V domains shown)
VH: QVQLVESGGGVVQPGRSLRLSCVASGFTLSSYGMHWVRQAPGKGLEWVAVIWYDGSSKYYTDSVKGRFDISRDNSKNTLYLQMNILRAEDTAVYYCARETILIGGVPFDYWGQGTLVTVSS
VL: EIVLTQSPGTLSLSPGERATLSCGASQSIRSNYLAWYQQKPGQAPRLLIYGASSRATGTPDRFSGSGSGTDFTLTITRLEPEDFALYYCQQYGRSYTFGQGTKLEIK
- Binding to PAR2 ratio (PAR2): 1.0
- Functional screen on hybridoma supernatants (human platelets): Yes (+++) (aggregation <25% of control)

B2: MoB5F E6: hybridoma supernatant clone, second screening; likely parent of 5F.RE6 (antibody, V domains shown)
VH: QVQLAESGGGVVQPGRSLRVSCAASGFTFSSYGMHWVRQAPGKGLEWVAVIWYDGTKKYYADSLKGRFTISRDNSKYTLYLQMNSLRADDTALYFCARKGARGITGLDYWGQGTLVTVSS
VL: DIQMTQSPSSLSASAGDRITITCRASQSISNYLNWYQQKPGKAPKLLIYAASSLQSGVPSRFSGSGSGTDFTLTISSLQPEDFASYYCRQNYNTPLTFGGGTKVEIK
- Binding to PAR2 ratio (PAR2): 1.3
- Functional screen on hybridoma supernatants (human platelets): Yes (+) (aggregation between 50-80% of control)

B3: MoB5AR C3: parent hybridoma clone (supernatant) from which 5A.RC3.F10b.H4b was sub-cloned (antibody, V domains shown)
VH: QVQLVESGGGVVQPGRSLRLSCAASGFTLSNYGMHWVRQAPGKGLEWVSVIWYDGSNKHYADSVKGRFTISRDNSKNTLYLQMNSLRAEDTAVYYCARESIVEVLPPFDYWGQGTLVTVSS
VL: KIVLTQSPGTLSLSPGERVTLSCRASQRVRNNYLAWFQQKPGQAPRLFIYGASSRATGIPDRFSGSGSGTDFIFTISRLEPEDFAVYYCQQYGNSYTFGQGTKLEIK
modifications: VH of 5A.RC3; VL of 5A.RC3
notes: parent hybridoma clone (supernatant) from which 5A.RC3.F10b.H4b was sub-cloned
- Fold binding native vs KLH-linked PAR4 peptide (native PAR4 peptide): 19.9
- Functional screen on hybridoma supernatants that exhibited binding ([1]; % of uncleaved PAR4 peptide expressed on HEK293 cells): Yes (Hybridoma supernatants that demonstrated greater than 70% of uncleaved PAR4 were considered positive)
- blocked thrombin-induced cleavage of PAR4 ([1]; initial screen of hybridoma supernatants, thrombin 2 U/ml for 10 mins): at least 90%
- block of thrombin-induced cleavage of PAR4 ([1]; initial screen, thrombin 2 U/ml for 10 mins): almost completely blocked thrombin-induced cleavage of PAR4
